Experimental data: the supplement of paper PMC11316812
± gives the standard deviation of the averaged measurements.

Legend:
MCF7 = experiment: percentage of EdU-negative (G0-arrested) nuclei per well, 72 h; higher = more G0 arrest; details: reference: sequence is the full UniProt precursor, the tested protein was the secreted form or ectodomain
hTERT-HMEC = experiment: as above; details: reference: sequence is the full UniProt precursor, the tested protein was the secreted form or ectodomain
[1] = protein concentration 0.00925 µM
[2] = protein concentration 0.0925 µM
[3] = protein concentration 0.012845 µM
[4] = protein concentration 0.12845 µM
[5] = protein concentration 0.0225 µM
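Also: secreted proteins added to cultured cells, EdU pulse at the end, nuclei found by Hoechst imaging, EdU status from nuclear versus surrounding ring intensity ratio, PBS as neutral control.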

Sequence: MPPGPWESCFWVGGLILWLSVGSSGDAPPTPQPKCADFQSANLFEGTDLKVQFLLFVPSNPSCGQLVEGSSDLQNSGFNATLGTKLIIHGFRVLGTKPSWIDTFIRTLLRATNANVIAVDWIYGSTGVYFSAVKNVIKLSLEISLFLNKLLVLGVSESSIHIIGVSLGAHVGGMVGQLFGGQLGQITGLDPAGPEYTRASVEERLDAGDALFVEAIHTDTDNLGIRIPVGHVDYFVNGGQDQPGCPTFFYAGYSYLICDHMRAVHLYISALENSCPLMAFPCASYKAFLAGRCLDCFNPFLLSCPRIGLVEQGGVKIEPLPKEVKVYLLTTSSAPYCMHHSLVEFHLKELRNKDTNIEVTFLSSNITSSSKITIPKQQRYGKGIIAHATPQCQINQVKFKFQSSNRVWKKDRTTIIGKFCTALLPVNDREKMVCLPEPVNLQASVTVSCDLKIACV [Q53H76]
- percentage of EdU-negative (MCF7; [1]): 24.3 ± 1.9%
- percentage of EdU-negative (MCF7; [2]): 28.4 ± 1.4%
- percentage of EdU-negative (hTERT-HMEC; [1]): 4.11 ± 0.46%
- percentage of EdU-negative (hTERT-HMEC; [2]): 6.06 ± 0.41%

Sequence: MKRSVAVWLLVGLSLGVPQFGKGDICDPNPCENGGICLPGLADGSFSCECPDGFTDPNCSSVVEVASDEEEPTSAGPCTPNPCHNGGTCEISEAYRGDTFIGYVCKCPRGFNGIHCQHNINECEVEPCKNGGICTDLVANYSCECPGEFMGRNCQYKCSGPLGIEGGIISNQQITASSTHRALFGLQKWYPYYARLNKKGLINAWTAAENDRWPWIQINLQRKMRVTGVITQGAKRIGSPEYIKSYKIAYSNDGKTWAMYKVKGTNEDMVFRGNIDNNTPYANSFTPPIKAQYVRLYPQVCRRHCTLRMELLGCELSGCSEPLGMKSGHIQDYQITASSIFRTLNMDMFTWEPRKARLDKQGKVNAWTSGHNDQSQWLQVDLLVPTKVTGIITQGAKDFGHVQFVGSYKLAYSNDGEHWTVYQDEKQRKDKVFQGNFDNDTHRKNVIDPPIYARHIRILPWSWYGRITLRSELLGCTEEE
- percentage of EdU-negative (MCF7; [3]): 25.7 ± 1.6%
- percentage of EdU-negative (MCF7; [4]): 30.6 ± 1.9%
- percentage of EdU-negative (hTERT-HMEC; [3]): 4.79 ± 0.32%
- percentage of EdU-negative (hTERT-HMEC; [4]): 47.8 ± 1.9%

Sequence: MDPQCTMGLSNILFVMAFLLSGAAPLKIQAYFNETADLPCQFANSQNQSLSELVVFWQDQENLVLNEVYLGKEKFDSVHSKYMGRTSFDSDSWTLRLHNLQIKDKGLYQCIIHHKKPTGMIRIHQMNSELSVLANFSQPEIVPISNITENVYINLTCSSIHGYPEPKKMSVLLRTKNSTIEYDGVMQKSQDNVTELYDVSISLSVSFPDVTSNMTIFCILETDKTRLLSSPFSIELEDPQPPPDHIPWITAVLPTVIICVMVFCLILWKWKKKKRPRNSYKCGTNTMEREESEQTKKREKIHIPERSDEAQRVFKSSKTSSCDKSDTCF
- percentage of EdU-negative (MCF7; [5]): 24 ± 1.6%
- percentage of EdU-negative (MCF7; protein concentration 0.225 µM): 25.9 ± 0.81%
- percentage of EdU-negative (hTERT-HMEC; [5]): 4.6 ± 0.096%
- percentage of EdU-negative (hTERT-HMEC; protein concentration 0.225 µM): 6.71 ± 0.18%

Sequence: MQLRNPELHLGCALALRFLALVSWDIPGARALDNGLARTPTMGWLHWERFMCNLDCQEEPDSCISEKLFMEMAELMVSEGWKDAGYEYLCIDDCWMAPQRDSEGRLQADPQRFPHGIRQLANYVHSKGLKLGIYADVGNKTCAGFPGSFGYYDIDAQTFADWGVDLLKFDGCYCDSLENLADGYKHMSLALNRTGRSIVYSCEWPLYMWPFQKPNYTEIRQYCNHWRNFADIDDSWKSIKSILDWTSFNQERIVDVAGPGGWNDPDMLVIGNFGLSWNQQVTQMALWAIMAAPLFMSNDLRHISPQAKALLQDKDVIAINQDPLGKQGYQLRQGDNFEVWERPLSGLAWAVAMINRQEIGGPRSYTIAVASLGKGVACNPACFITQLLPVKRKLGFYEWTSRLRSHINPTGTVLLQLENTMQMSLKDLL
- percentage of EdU-negative (MCF7; protein concentration 0.021 µM): 24.8 ± 0.73%
- percentage of EdU-negative (MCF7; protein concentration 0.21 µM): 24.3 ± 0.28%
- percentage of EdU-negative (hTERT-HMEC; protein concentration 0.021 µM): 5.25 ± 0.8%
- percentage of EdU-negative (hTERT-HMEC; protein concentration 0.21 µM): 4.6 ± 0.74%

Sequence: MFFWCACCLMVAWRVSASDAEHCPELPPVDNSIFVAKEVEGQILGTYVCIKGYHLVGKKTLFCNASKEWDNTTTECRLGHCPDPVLVNGEFSSSGPVNVSDKITFMCNDHYILKGSNRSQCLEDHTWAPPFPICKSRDCDPPGNPVHGYFEGNNFTLGSTISYYCEDRYYLVGVQEQQCVDGEWSSALPVCKLIQEAPKPECEKALLAFQESKNLCEAMENFMQQLKESGMTMEELKYSLELKKAELKAKLL
- percentage of EdU-negative (MCF7; [5]): 24.2 ± 1.2%
- percentage of EdU-negative (MCF7; protein concentration 0.225 µM): 27.8 ± 3.5%
- percentage of EdU-negative (hTERT-HMEC; [5]): 5.33 ± 0.68%
- percentage of EdU-negative (hTERT-HMEC; protein concentration 0.225 µM): 12 ± 1.5%
